Measured values published in patent publication US12357802B2, “Self-actuating articles” (priority 2017, dated 2025).

Test system: Micrococcus lysodeikticus cells
Assay: Lysozyme enzyme activity assay of dissolved micropost tips
Assay type: biochemical
Conditions: micropost tips 80% lysozyme and 20% PEO 200 k, vs uncompressed powder
Description: To measure the activity of lysozyme, the assay provided by Sigma Aldrich was used which measures the amount of lysed Micrococcus lysodeikticus cells. Briefly, a 200 unit/mL Lysozyme solution in 50 mM Potassium Phosphate Buffer was added to a 0.015% [w/v]Micrococcus lysodeikticus cell suspension in the same buffer. The decrease was recorded in A450 over 5 minutes. Nine micropost tips were fabricated from 80% lysozyme and 20% PEO 200 k and dissolved sets of three micropost tips together. Triplicate assays were performed on each dissolved solution for a total of nine tests and the results were compared to the results of a solution made with lysozyme that was not compressed into a micropost tip.

For lysozyme, which “enzymatic activity after the manufacturing process” value is on record?
Its value is “maintain their activity”.
